According to publication PMC7053995, “New approach for membrane protein reconstitution into peptidiscs and basis for their adaptability to different proteins” (eLife, 2020):

Experiments:
[1] = target: Rhodobacter sphaeroides dimeric RC–LH1–PufX complex (521 kDa) (Rhodobacter sphaeroides) (UniProt P0C0Y7); test: negative-stain electron microscopy; SEC peak fractions of purified RC complexes in peptidiscs, 0.7% uranyl formate, 100 class averages by K-means classification
[2] = target: the molecule itself; test: cryo-EM structure; single-particle cryo-EM of His-tagged membrane protein reconstituted on Ni beads into peptidiscs and purified by SEC; vitrified; Titan Krios 300 kV, K2 Summit; RELION-3 with C2 (MsbA) or C7 (MscS) symmetry imposed, also processed without symmetry

Row | stoichiometry N [1] | Molecule | stoichiometry N [2]
1 | 2 | Rhodobacter sphaeroides dimeric RC–LH1–PufX complex (521 kDa) (from UniProt P0C0Y7 1-260; P13402 1-82) | 
2 |  | Escherichia coli MsbA (ABC transporter, lipid transporter), His-tagged (natural protein, MsbA, ABC transporter of Escherichia coli; Nucleotide-free; also called His6-MsbA; source: E. coli C43, purified (DDM, Ni-NTA, SEC)) MHNDKDLSTWQTFRRLWPTIAPFKAGLIVAGVALILNAASDTFMLSLLKPLLDDGFGKTDRSVLVWMPLVVIGLMILRGITSYVSSYCISWVSGKVVMTMRRRLFGHMMGMPVSFFDKQSTGTLLSRITYDSEQVASSSSGALITVVREGASIIGLFIMMFYYSWQLSIILIVLAPIVSIAIRVVSKRFRNISKNMQNTMGQVTTSAEQMLKGHKEVLIFGGQEVETKRFDKVSNRMRLQGMKMVSASSISDPIIQLIASLALAFVLYAASFPSVMDSLTAGTITVVFSSMIALMRPLKSLTNVNAQFQRGMAACQTLFTILDSEQEKDEGKRVIERATGDVEFRNVTFTYPGRDVPALRNINLKIPAGKTVALVGRSGSGKSTIASLITRFYDIDEGEILMDGHDLREYTLASLRNQVALVSQNVHLFNDTVANNIAYARTEQYSREQIEEAARMAYAMDFINKMDNGLDTVIGENGVLLSGGQRQRIAIARALLRDSPILILDEATSALDTESERAIQAALDELQKNRTSLVIAHRLSTIEKADEIVVVEDGVIVERGTHNDLLEHRGVYAQLHKMQFGQ | 2
3 |  | Escherichia coli mechanosensitive channel MscS, His-tagged (natural protein, UniProt P0C0S1 1-286, looked up, full-length E. coli MscS cloned into pET-28b(+); Homo-heptamer; source: E. coli BL21 (DE3), purified (Ni-NTA, SEC)) MEDLNVVDSINGAGSWLVANQALLLSYAVNIVAALAIIIVGLIIARMISNAVNRLMISRKIDATVADFLSALVRYGIIAFTLIAALGRVGVQTASVIAVLGAAGLAVGLALQGSLSNLAAGVLLVMFRPFRAGEYVDLGGVAGTVLSVQIFSTTMRTADGKIIVIPNGKIIAGNIINFSREPVRRNEFIIGVAYDSDIDQVKQILTNIIQSEDRILKDREMTVRLNELGASSINFVVRVWSNSGDLQNVYWDVLERIKREFDAAGISFPYPQMDVNFKRVKEDKAA | 7
